Assay results published in US11008403 (dated 2021).

T1: cyno TfR ECD (cynomolgus)
T1 chain: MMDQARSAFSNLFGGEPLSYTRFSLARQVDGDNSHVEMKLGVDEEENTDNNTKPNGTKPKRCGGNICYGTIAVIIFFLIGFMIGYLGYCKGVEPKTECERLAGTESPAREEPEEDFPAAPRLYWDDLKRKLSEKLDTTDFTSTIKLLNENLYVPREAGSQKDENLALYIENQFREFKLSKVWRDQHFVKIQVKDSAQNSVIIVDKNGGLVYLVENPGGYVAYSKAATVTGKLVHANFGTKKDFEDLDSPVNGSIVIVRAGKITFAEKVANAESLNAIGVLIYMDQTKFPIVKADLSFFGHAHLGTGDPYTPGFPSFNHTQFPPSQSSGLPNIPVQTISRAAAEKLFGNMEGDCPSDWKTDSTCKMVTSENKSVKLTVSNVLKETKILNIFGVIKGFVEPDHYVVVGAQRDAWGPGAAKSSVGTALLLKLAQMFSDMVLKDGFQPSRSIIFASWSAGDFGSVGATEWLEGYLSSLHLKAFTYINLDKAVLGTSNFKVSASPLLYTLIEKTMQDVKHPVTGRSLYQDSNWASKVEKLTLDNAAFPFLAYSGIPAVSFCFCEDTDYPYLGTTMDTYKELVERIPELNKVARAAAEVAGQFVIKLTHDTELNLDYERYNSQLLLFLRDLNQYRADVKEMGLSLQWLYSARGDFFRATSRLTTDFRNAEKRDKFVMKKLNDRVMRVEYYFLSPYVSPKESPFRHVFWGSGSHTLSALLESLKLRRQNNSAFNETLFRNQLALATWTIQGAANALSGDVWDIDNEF


Key:
cyno TfR ECD = molecular target: T1, cyno TfR ECD; assay: ELISA
human TfR ECD = human TfR ECD (human); assay: ELISA
human TfR ECD (human), sequence (chain, as listed by the source): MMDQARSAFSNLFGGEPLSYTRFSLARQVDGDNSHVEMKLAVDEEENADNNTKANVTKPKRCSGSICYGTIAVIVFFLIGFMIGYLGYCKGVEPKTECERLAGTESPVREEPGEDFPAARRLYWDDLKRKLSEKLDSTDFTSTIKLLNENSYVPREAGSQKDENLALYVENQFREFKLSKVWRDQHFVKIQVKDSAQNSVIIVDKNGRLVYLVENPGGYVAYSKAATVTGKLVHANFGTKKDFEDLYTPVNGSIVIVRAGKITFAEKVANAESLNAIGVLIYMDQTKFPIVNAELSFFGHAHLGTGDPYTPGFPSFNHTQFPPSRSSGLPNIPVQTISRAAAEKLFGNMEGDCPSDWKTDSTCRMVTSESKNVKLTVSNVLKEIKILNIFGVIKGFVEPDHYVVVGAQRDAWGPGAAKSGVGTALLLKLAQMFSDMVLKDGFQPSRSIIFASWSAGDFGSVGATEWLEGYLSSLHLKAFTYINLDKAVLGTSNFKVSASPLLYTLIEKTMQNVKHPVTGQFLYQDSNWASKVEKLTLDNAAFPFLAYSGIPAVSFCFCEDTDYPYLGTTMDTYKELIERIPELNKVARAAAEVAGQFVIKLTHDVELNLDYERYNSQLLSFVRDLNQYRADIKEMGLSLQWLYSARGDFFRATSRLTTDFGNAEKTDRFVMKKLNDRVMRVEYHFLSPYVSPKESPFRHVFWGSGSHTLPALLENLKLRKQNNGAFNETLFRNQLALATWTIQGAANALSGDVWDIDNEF

| Binder | EC50 (cyno TfR ECD) | EC50 (human TfR ECD) |
| --- | --- | --- |
| hu15G11.v5 HC Y27A (antibody, V domains shown) VH: EVQLVQSGAEVKKPGASVKVSCKASGATFTSYWMHWVRQAPGQRLEWIGEINPTNGRTNYIEKFKSRATLTVDKSASTAYMELSSLRSEDTAVYYCARGTRAYHYWGQGTMVTVSS VL: DIQMTQSPSSLSASVGDRVTITCRASDNLYSNLAWYQQKPGKSPKLLVYDATNLADGVPSRFSGSGSGTDYTLTISSLQPEDFATYYCQHFWGTPLTFGQGTKVEIK | 1470 ng/mL | 21.1 ng/mL |
| hu15G11.v5 HC T30A (antibody, V domains shown) VH: EVQLVQSGAEVKKPGASVKVSCKASGYTFASYWMHWVRQAPGQRLEWIGEINPTNGRTNYIEKFKSRATLTVDKSASTAYMELSSLRSEDTAVYYCARGTRAYHYWGQGTMVTVSS VL: DIQMTQSPSSLSASVGDRVTITCRASDNLYSNLAWYQQKPGKSPKLLVYDATNLADGVPSRFSGSGSGTDYTLTISSLQPEDFATYYCQHFWGTPLTFGQGTKVEIK | 0.9 ng/mL | 0.4 ng/mL |
| hu15G11.v5 HC F29A (antibody, V domains shown) VH: EVQLVQSGAEVKKPGASVKVSCKASGYTATSYWMHWVRQAPGQRLEWIGEINPTNGRTNYIEKFKSRATLTVDKSASTAYMELSSLRSEDTAVYYCARGTRAYHYWGQGTMVTVSS VL: DIQMTQSPSSLSASVGDRVTITCRASDNLYSNLAWYQQKPGKSPKLLVYDATNLADGVPSRFSGSGSGTDYTLTISSLQPEDFATYYCQHFWGTPLTFGQGTKVEIK | 12.5 ng/mL | 1.5 ng/mL |
| hu15G11.v5 LC Y30A (antibody, V domains shown) VH: EVQLVQSGAEVKKPGASVKVSCKASGYTFTSYWMHWVRQAPGQRLEWIGEINPTNGRTNYIEKFKSRATLTVDKSASTAYMELSSLRSEDTAVYYCARGTRAYHYWGQGTMVTVSS VL: DIQMTQSPSSLSASVGDRVTITCRASDNLASNLAWYQQKPGKSPKLLVYDATNLADGVPSRFSGSGSGTDYTLTISSLQPEDFATYYCQHFWGTPLTFGQGTKVEIK | 1 ng/mL | 0.3 ng/mL |
| hu15G11.v5 LC S31A (antibody, V domains shown) VH: EVQLVQSGAEVKKPGASVKVSCKASGYTFTSYWMHWVRQAPGQRLEWIGEINPTNGRTNYIEKFKSRATLTVDKSASTAYMELSSLRSEDTAVYYCARGTRAYHYWGQGTMVTVSS VL: DIQMTQSPSSLSASVGDRVTITCRASDNLYANLAWYQQKPGKSPKLLVYDATNLADGVPSRFSGSGSGTDYTLTISSLQPEDFATYYCQHFWGTPLTFGQGTKVEIK | 0.7 ng/mL | 0.3 ng/mL |
| hu15G11.v5 LC N32A (antibody, V domains shown) VH: EVQLVQSGAEVKKPGASVKVSCKASGYTFTSYWMHWVRQAPGQRLEWIGEINPTNGRTNYIEKFKSRATLTVDKSASTAYMELSSLRSEDTAVYYCARGTRAYHYWGQGTMVTVSS VL: DIQMTQSPSSLSASVGDRVTITCRASDNLYSALAWYQQKPGKSPKLLVYDATNLADGVPSRFSGSGSGTDYTLTISSLQPEDFATYYCQHFWGTPLTFGQGTKVEIK | 4 ng/mL | 1.6 ng/mL |
| hu15G11.v5 HC W33A (antibody, V domains shown) VH: EVQLVQSGAEVKKPGASVKVSCKASGYTFTSYAMHWVRQAPGQRLEWIGEINPTNGRTNYIEKFKSRATLTVDKSASTAYMELSSLRSEDTAVYYCARGTRAYHYWGQGTMVTVSS VL: DIQMTQSPSSLSASVGDRVTITCRASDNLYSNLAWYQQKPGKSPKLLVYDATNLADGVPSRFSGSGSGTDYTLTISSLQPEDFATYYCQHFWGTPLTFGQGTKVEIK | 362 ng/mL | 59.6 ng/mL |
| hu15G11.v5 LC D27A (antibody, V domains shown) VH: EVQLVQSGAEVKKPGASVKVSCKASGYTFTSYWMHWVRQAPGQRLEWIGEINPTNGRTNYIEKFKSRATLTVDKSASTAYMELSSLRSEDTAVYYCARGTRAYHYWGQGTMVTVSS VL: DIQMTQSPSSLSASVGDRVTITCRASANLYSNLAWYQQKPGKSPKLLVYDATNLADGVPSRFSGSGSGTDYTLTISSLQPEDFATYYCQHFWGTPLTFGQGTKVEIK | 0.8 ng/mL | 0.2 ng/mL |
| hu15G11.v5 LC L33A (antibody, V domains shown) VH: EVQLVQSGAEVKKPGASVKVSCKASGYTFTSYWMHWVRQAPGQRLEWIGEINPTNGRTNYIEKFKSRATLTVDKSASTAYMELSSLRSEDTAVYYCARGTRAYHYWGQGTMVTVSS VL: DIQMTQSPSSLSASVGDRVTITCRASDNLYSNAAWYQQKPGKSPKLLVYDATNLADGVPSRFSGSGSGTDYTLTISSLQPEDFATYYCQHFWGTPLTFGQGTKVEIK | 0.1 ng/mL | 0.05 ng/mL |
| hu15G11.v5 LC T52A (antibody, V domains shown) VH: EVQLVQSGAEVKKPGASVKVSCKASGYTFTSYWMHWVRQAPGQRLEWIGEINPTNGRTNYIEKFKSRATLTVDKSASTAYMELSSLRSEDTAVYYCARGTRAYHYWGQGTMVTVSS VL: DIQMTQSPSSLSASVGDRVTITCRASDNLYSNLAWYQQKPGKSPKLLVYDAANLADGVPSRFSGSGSGTDYTLTISSLQPEDFATYYCQHFWGTPLTFGQGTKVEIK | 0.3 ng/mL | 0.2 ng/mL |
| hu15G11.v5 HC Y32A (antibody, V domains shown) VH: EVQLVQSGAEVKKPGASVKVSCKASGYTFTSAWMHWVRQAPGQRLEWIGEINPTNGRTNYIEKFKSRATLTVDKSASTAYMELSSLRSEDTAVYYCARGTRAYHYWGQGTMVTVSS VL: DIQMTQSPSSLSASVGDRVTITCRASDNLYSNLAWYQQKPGKSPKLLVYDATNLADGVPSRFSGSGSGTDYTLTISSLQPEDFATYYCQHFWGTPLTFGQGTKVEIK | 1.4 ng/mL | 0.4 ng/mL |
| hu15G11.v5 HC M34A (antibody, V domains shown) VH: EVQLVQSGAEVKKPGASVKVSCKASGYTFTSYWAHWVRQAPGQRLEWIGEINPTNGRTNYIEKFKSRATLTVDKSASTAYMELSSLRSEDTAVYYCARGTRAYHYWGQGTMVTVSS VL: DIQMTQSPSSLSASVGDRVTITCRASDNLYSNLAWYQQKPGKSPKLLVYDATNLADGVPSRFSGSGSGTDYTLTISSLQPEDFATYYCQHFWGTPLTFGQGTKVEIK | 1.1 ng/mL | 0.4 ng/mL |
| hu15G11.v5 LC N53A (antibody, V domains shown) VH: EVQLVQSGAEVKKPGASVKVSCKASGYTFTSYWMHWVRQAPGQRLEWIGEINPTNGRTNYIEKFKSRATLTVDKSASTAYMELSSLRSEDTAVYYCARGTRAYHYWGQGTMVTVSS VL: DIQMTQSPSSLSASVGDRVTITCRASDNLYSNLAWYQQKPGKSPKLLVYDATALADGVPSRFSGSGSGTDYTLTISSLQPEDFATYYCQHFWGTPLTFGQGTKVEIK | 0.6 ng/mL | 0.3 ng/mL |
| hu15G11.v5 HC T53A (antibody, V domains shown) VH: EVQLVQSGAEVKKPGASVKVSCKASGYTFTSYWMHWVRQAPGQRLEWIGEINPANGRTNYIEKFKSRATLTVDKSASTAYMELSSLRSEDTAVYYCARGTRAYHYWGQGTMVTVSS VL: DIQMTQSPSSLSASVGDRVTITCRASDNLYSNLAWYQQKPGKSPKLLVYDATNLADGVPSRFSGSGSGTDYTLTISSLQPEDFATYYCQHFWGTPLTFGQGTKVEIK | 0.7 ng/mL | 0.3 ng/mL |
| hu15G11.v5 HC N52A (antibody, V domains shown) VH: EVQLVQSGAEVKKPGASVKVSCKASGYTFTSYWMHWVRQAPGQRLEWIGEIAPTNGRTNYIEKFKSRATLTVDKSASTAYMELSSLRSEDTAVYYCARGTRAYHYWGQGTMVTVSS VL: DIQMTQSPSSLSASVGDRVTITCRASDNLYSNLAWYQQKPGKSPKLLVYDATNLADGVPSRFSGSGSGTDYTLTISSLQPEDFATYYCQHFWGTPLTFGQGTKVEIK | 0.9 ng/mL | 0.3 ng/mL |
| hu15G11.v5 HC S31A (antibody, V domains shown) VH: EVQLVQSGAEVKKPGASVKVSCKASGYTFTAYWMHWVRQAPGQRLEWIGEINPTNGRTNYIEKFKSRATLTVDKSASTAYMELSSLRSEDTAVYYCARGTRAYHYWGQGTMVTVSS VL: DIQMTQSPSSLSASVGDRVTITCRASDNLYSNLAWYQQKPGKSPKLLVYDATNLADGVPSRFSGSGSGTDYTLTISSLQPEDFATYYCQHFWGTPLTFGQGTKVEIK | 0.1 ng/mL | 0.05 ng/mL |
| hu15G11.v5 LC D56A (antibody, V domains shown) VH: EVQLVQSGAEVKKPGASVKVSCKASGYTFTSYWMHWVRQAPGQRLEWIGEINPTNGRTNYIEKFKSRATLTVDKSASTAYMELSSLRSEDTAVYYCARGTRAYHYWGQGTMVTVSS VL: DIQMTQSPSSLSASVGDRVTITCRASDNLYSNLAWYQQKPGKSPKLLVYDATNLAAGVPSRFSGSGSGTDYTLTISSLQPEDFATYYCQHFWGTPLTFGQGTKVEIK | 0.5 ng/mL | 0.3 ng/mL |
| hu15G11.v5 LC L29A (antibody, V domains shown) VH: EVQLVQSGAEVKKPGASVKVSCKASGYTFTSYWMHWVRQAPGQRLEWIGEINPTNGRTNYIEKFKSRATLTVDKSASTAYMELSSLRSEDTAVYYCARGTRAYHYWGQGTMVTVSS VL: DIQMTQSPSSLSASVGDRVTITCRASDNAYSNLAWYQQKPGKSPKLLVYDATNLADGVPSRFSGSGSGTDYTLTISSLQPEDFATYYCQHFWGTPLTFGQGTKVEIK | 0.9 ng/mL | 0.3 ng/mL |
| hu15G11.v5 LC D50A (antibody, V domains shown) VH: EVQLVQSGAEVKKPGASVKVSCKASGYTFTSYWMHWVRQAPGQRLEWIGEINPTNGRTNYIEKFKSRATLTVDKSASTAYMELSSLRSEDTAVYYCARGTRAYHYWGQGTMVTVSS VL: DIQMTQSPSSLSASVGDRVTITCRASDNLYSNLAWYQQKPGKSPKLLVYAATNLADGVPSRFSGSGSGTDYTLTISSLQPEDFATYYCQHFWGTPLTFGQGTKVEIK | 0.5 ng/mL | 0.2 ng/mL |
